Assay: soluble on expression in E. coli; label from the status in PepcDB or PDB records

Row | Sequence | soluble on expression in E. coli
1 | MSLQNHDLESIKQAALIEYEVREQGSSDVLDSNISKEPLEFIIGANQIIVGLEKAVLKAQIGEWEEIVIAPEEAYGVYESGYLQEVPRDQFEGIELEKGMSVFGQTEDNQTIQATIKDFSNTHVMVDYNHPLAGKTLAFRFKVLGFREVSEEEILASHHDSGTGCCGGHGGHGGKKGGGCGCSCSHGEGGSHHHHHH | soluble
2 | MFSLRDAKCGQTVKVVKLHGTGALKRRIMDMGITRGCEIYIRKVAPLGDPIQINVRGYELSLRKSAAEMIEVE | not soluble
3 | MAAAVRQDLAQLMNSSGSHKDLAGKYRQILEKAIQLSGTEQLEALKAFVEAMVNENVSLVISRQLLTDFCTHLPNLPDSTAKEVYHFTLEKIQPRVISFEEQVASIRQHLASIYEKEEDWRNAAQVLVGIPLETGQKQYNVDYKLETYLKIARLYLEDDDPVQAEAYINRASLLQNESTNEQLQIHYKVCYARVLDYRRKFIEAAQRYNELSYKTIVHESERLEALKACTGTAPILVSAGDSSALGGRAIFFKDKRCQQLAAYGILEKMYVDRIIRGNQLQEFAAMLMPHQKATTADGSSILDRAVIEHNLLSASKLYNNITFEELGALLEIPAAKAEKIASQMITEGRMNGFIDQIDGIVHFETREALPTWDKQIQSLCFQVNNLLEKISQTAPEWTAQAMEAQMAQ | soluble
4 | MSLDVRQSIHSAHAKTLDTQGLRNEFLVEKVFVADEYTMVYSHIDRIIVGGIMPITKTVSVGGEVGKQLGVSYFLERRELGVINIGGAGTITVDGQCYEIGHRDALYVGKGAKEVVFASIDTGTPAKFYYNCAPAHTTYPTKKVTPDEVSPVTLGDNLTSNRRTINKYFVPDVLETCQLSMGLTELAPGNLWNTMPCHTHERRMEVYFYFNMDDDACVFHMMGQPQETRHIVMHNEQAVISPSWSIHSGVGTKAYTFIWGMVGENQVFDDMDHVAVKDLREGHHHHHH | soluble
5 | MATYNGQGFIHDQLDSIRNQTLRPDYVLMRDDGSTDDTVKVVEDYIKEHRLDGWSITSNDKNLGWRLNFRQLLIDVLAYEVDYVFFSDQDDTWYHHKNKMQVDIMEERQDINLLSADIDIKKLSEEATIPNNFKFNGEETISKYPLDFSYHNYRQGWTFCLRKSFVDQVMTFYSDNLILSHDNLFAGVSGVIGSGYNLNRSVGEHKRHAENASGNILNMSSSYERHLQELYFVLSYYIILVPFLEKSSSSQLREAKAYLDFNQQRYKNAQNKDFVAILKQMMTKKRFYDSFSNRIRDLVFLLKDIKRS | not soluble
6 | MPQDMSQFLQVFFEETEEHLATLELLLIGLDLDRPDSETLHGIFRAAHSIKGSSGMFGFDDITAVTHELETLLDRIRCGQMHLRPDMISSFLEARDVLQRLLDAHRSGRPDPGVPLLETVERLRGWLRVPEQEAAEEGFGLFDDAPARETADDDAFGFFDEGPGAPERAAAPEAFGLFDEAPGAPAASEAFGLFDEAPGSPPAEERAFGLFDGAPGSPAAPSAPAQAVAAPARGAVAPVRGDGESGSIRVSVEKIDSLINLVGELVITQAMLGQLGEQLDPSRHERLQHALAQLEHNTRDLQESVMSIRMLPINFIFSRFPRLVRDTATRLGKQVELHLHGEHTELDKSVIEKLSDPLTHIVRNSIDHGIETPAERLAAGKPASGTVKLAASHQGGSVVVEVSDDGRGLSRPRILAKARERNLPVHDGMSDAEVWQLVFMPGFSTAETVTELSGRGVGMDVVKRNIGAMGGRIDIDSAPGMGTRIGIRLPLTLAILDGLIVAVEAVNYVIPLTYIVESLQARSDDVRGLGGEDNAMIRVRGEYLPLFSLHELLRIGGEAPAPEQGIVVILESEGRSFALQVDELVGQQQVVIKSLEQNFRRVEGIAGATIMGDGSVALILDVDALPRLAAREDTADE | not soluble
7 | MGSDKIHHHHHHMKLYVSFAARIRAMIDEGVLRPGDKIFSVRQASQKYGLSISTVLRGYLLLEQEGIISSHPQSGYYVTPRKRLQRHETSPLSKDINLSEVDASKLVLTTLKSIREFGTVPLGSPFPDPQLFPLKKIHQYEKALTDDEGEWGVLSDLPPGNEMLRQQIARRYLANGMDVSPDDIVITHGATEAITLCLQAVAKAGDVIALESPGYYALAHTVERLGMKVAELRTDPDSGIDLDALRATAGNVRIAAVILTANFQNPLGFVMPDAKKQALVAFLEEQQIPLIEDDVYGELYFSETAPKPAKAFDRSGLVLHCASFSKSLAPGYRVGWTVAGRYRQEVERLMFLNSLSMPSAPQIAIAKFMQRDSFERHLKQLRHTLRSQYVLIRNVIEESFPAGTQLSAPKGGYVIWVNLPAPLDALKLYRAAIDNGITVAPGTIFSRKKDLTHYIRLNFSHLWTLAIEQAVRQVGALACGMLADAGNGEA | not soluble
8 | MAHHHHHHMSMHSVEGALCSCSMCKLTCHTASVYANQRRASKHVMLARPSPFYAETGGLPPEVPQLAPPPERLVVCPVFEEYGFCPFGRICFLPHSGEKTPLVERKGTSREELERLREKARLQEEEELWSCDVCGFDGIDENTQGRVGEMYYYRNCPRCSLMCYFPHIAYLVDAIFDASGDDYQIFKDEIDRCRRELPDILKVPLTYEAHRIASTAFAWSLVSPKHVKDALDAAYRALPEMSCIVSVGSGVGYVEHIFNRVANGVPAAPRDPDPALGISSFEGVHACFYPKKKLPIYAFDEVALNCPYSVCVSLGGPVALLSLQCPTSVLLLSWPPFGSPKEEQSSMAFEALEYFTQAGGKVVIYIGDVASTGDWRFHELLYTHYKLVKDYTVRREVRRWSPQDMGLVYAGNDTIGVYKLRSERLPSPQWQWDGRSS | not soluble
9 | MGSDKIHHHHHHMKKGLVMEGGAMRGLYTAGVTDVLMKYGIKFDGAVGVSAGVTFGCNYKSLQPGRVLRYNLRYGSRPQFKSWRSWIKTGDLYGADFCYYTLPEVLDPFDTAAFARNPMDFWCVATDVETAQPAYHKLTTGKGRDVAWIRASASIPVFARPVKIGGHAYWDGGVSDSIPVRFLLDKDYDKAVVILTQPAGYQKEPSRLQPVIDRVLKKYPAVVARLRQRHLEYNACLAYIAKEEAAGHLFVFRPSQGIDVSAMEKDPNRLKAVYQVGVRGCQAAIGGLEGIFTRLSTKNGD | not soluble
10 | MSEIDLTSEYSCSKHSKNPETAGEEFDVKVEKIYEDLKNSSIERQEDIPYFPNGEMTRIDIWGPETAEKVFIMIHGGYWLIGNRKKCLAVVHVAQKLGYTVVSVGYDYANKDHVLSKTIVEALEGVQFALKKFKNAKKIVIGGHSVGAHLAFQAVTRIHDPRISGAYLSAGIYKIQELTSTTYGHDLGLTSEEAETCSCDYELMKHVRFPVLIACCRRESPKLYQQNQDFSSQVANAQYKV | not soluble
11 | MKQLNFKKIFLNLLWPLLPFTAQAQENNTLYSILSKDNILVSSPSVQNQEEDIVTQMPNRHHKYDKRVHRYRRAWEALIPTHTKLQYAGGMGLLSWGIGWDYGKRGQWETDLLLGFIPRYSSKHFKMTMTLKQNYIPWSIWLGKDFSLEPLTTGIYFNTVFSDDFWTSEPERYPRGYYGFSTRIRTHIFLGQRVRFDVPEKYRKFSKSITAFYEISTCDLYVVSAFNNSYLKPDDYLRLSFGLKFQIF | not soluble
12 | MSLILCIDVGNSHIYGGVFDGDEIKLRFRHTSKVSTSDELGIFLKSVLRENNCSPETIRKIAICSVVPQVDYSLRSACVKYFSIDPFLLQAGVKTGLNIKYRNPVEVGADRIANAIAATHSFPNQNIIVIDFGTATTFCAISHKKAYLGGAILPGLRLSADALSKNTAKLPSVEIIKTESVVGRSTIESIQSGVYYGVLGACKELIQRIHHEAFNGDQILILATGGFASLFDKQGLYDHLVPDLVLQGIRLAAMMNTAEGHHHHHH | soluble
13 | MGSDKIHHHHHHLIQYAQAVMRHEAVAAIVAEIVARYQAIADDFELEASIMAAIEEELDQLPKLTFKNNDYLMAGFKARGEKLNAFLMTAVLNHEGIEATYGEPKSLGIVVTDHPNDAEVSRETYRNLATFRRPIGVLVVPGFYGYTSDDDIATFSRGGSDITGAILANGFHADLYENFTDVDGVAAADPRVVANPQMIREMTYREMRELSYGGFGVFHDEAILPAIAGQVPINLKNTNHPAAPGTMIVPEQHFVPKHAITGIVSSQHFGAIYLHRYLLNKEVGFTLKILQVLAHNGISYEHMPSGIDDLTIILDDRQLTEAKRKTICAEIQAAVHPDVLKWIDDYAIIMVVGEGMAQRTGLIQTILQPLATAGVHVSMINEGASQISLMLGTSRESANRAVKTIYNAFFIPINQRLEVH | not soluble
14 | AHPLENAWTFWFDNPQGKSRQVAWGSTIHPIHTFSTVEDFWGLYNNIHNPSKLNVGADFHCFKNKIEPKWEDPICANGGKWTISCGRGKSDTFWLHTLLAMIGEQFDFGDEICGAVVSVRQKQERVAIWTKNAANEAAQISIGKQWKEFLDYKDSIGFIVHEDAKRSDKGPKNRYTV | soluble
15 | SKDQHLRGFFSDSTSFNILMDMLFIKGKYKSALQVLIEMKNQDVKFTKDTYVLAFAICYKLNSPESFKICTTLREEALLKGEILSRRASCFAVALALNQNEMAKAVSIFSQIMNPESIACINLNIIIHIQSNMLENLIKTLKNAAEGNLSKFVKRHVFSEEVLAKVREKVKDVPALVAKFDEIYGTLHITGQVTTDSLDAVLCHTPRDRKSHTLLLNKRMVSRRTFQPLSQSLLAE | soluble
16 | MKAPFFNAPIFRQLIEFKSSTYTYIIGCHKTGKAVIIDPVVDTVSRDIQIIRDLNLDLIYGLNTHVHADHITGTNSLKTVFPTMKSVLSSKSGGEADKYVSDGEIIEIGGLKLEVRETPGHTNGCLTYVEHSLRSAFTGDALLIRACGRTDFQQGNPASLFDSVHDKIFTLPEDYVVYVGHNYNGVLQTTVWEEKNLNPRLTKSKDQFVEIMKNLKLNYPKQIDKAVPANMVDGKGH | not soluble
17 | MSSQSSSADGKVTLKFFHRWPKEPEKSYFEEVVKEFEKDHPDIDIQIEAVLNDSYKDKIKVMLGTTSPPDIYFSWSDEFAFKFIRGNKALDLSSYYKNDTDWSSQLVQSQITPFTYENKQYGVPWQMDAKSFFYNKDIFQKLNLDPPKTWDELIDVSKKLKEHGYTPISFGTKATWTISHYIGTLNQRMVDEKTREKDYNAKTGEFTDEGYVKALEKLQELMPYFNKHVNSVDHEYVRQQFKSGKSAMIYAETAEIKLVEPVNLGMFPFPEISGQKGSSEALTGAPEGFMISSRTKHPKEAMEFLQFLTSKRMGEKLVKDVGKYSAVQGTATEENATAIQREAVQHIVDAKSMVPWFDMDVDVEVADAYLTGVQQMLGGDMTPQQVMKAVQKAAKQVRASAELEHHHHHH | soluble
18 | MHGSKLPLTVWFWAAYLMATHSNGISARQMGRHLGLGSYKSAWLLCAKLRGAMVNLARALLSGLVEIDETQISYRTKDNPVAGGGGRSPEGKMQVVVAVEVIDNAPGRLRLGVIDDASSASLHPFIKASVASGATLKTDGWSAYPGAPGYKHEPHVVGKMAAHIVLPWVHRVISNLKTWALGVYHGLRRQHLQSYLNEFVFRFNCRRTPHAAFRTLLGIGLAIQPVTYNMLIAPEAQGLEHHHHHH | not soluble
19 | SSAEAGGGIRKRHRTKFTAEQKERMLALAERIGWRIQRQDDEVIQRFCQETGVPRQVLKVWLHNNKH | soluble
20 | MGSDKIHHHHHHMKTTALRLYGKRDLRLETFDLPEMQEDEILATVVTDSLCLSSWKEANLGENHKKVPDDVTTNPIIIGHEFCGDILAVGKKWQHKFQPGQRYVIQANLQLPDRPDCPGYSFPWVDGEATHVVIPNEVMEQYCLLAYDGETYFEGSLVEPLSCVIGAFNANYHLQEGSYNHTMGIRPQGHTLILGGTGPMGLLAIDYALHGPVNPSLLVITDTDNDKLSYARKHYPSEPQTLIHYLNATDAAFDTLMALSGGHGFDDIFVFVPNEGLVTLASSLLATDGCLNFFAGPQDKHFSAPINFYDVHYAFTHYVGTSGGNTDDMRAAVKLIEEKKVQAAKVVTHILGLNAAGETTLELPAVGGGKKLVYTGKYLPLTSLTQIQDQALAAILARHQGIWSGEVEQYLLAHAEAISHD | not soluble
